Patent US10793631B2, “Human PAC1 antibodies” (AMGEN INC., priority 2013, dated 2020)

Key:
Type in all cases: cell-based
VPAC2 = molecular target: T1, VPAC2 (Homo sapiens, UniProt P41587); assay: Activity and selectivity of PAC1 agonists on VPAC2; details: receptor agonist on VPAC2
T1 sequence (P41587 24-438): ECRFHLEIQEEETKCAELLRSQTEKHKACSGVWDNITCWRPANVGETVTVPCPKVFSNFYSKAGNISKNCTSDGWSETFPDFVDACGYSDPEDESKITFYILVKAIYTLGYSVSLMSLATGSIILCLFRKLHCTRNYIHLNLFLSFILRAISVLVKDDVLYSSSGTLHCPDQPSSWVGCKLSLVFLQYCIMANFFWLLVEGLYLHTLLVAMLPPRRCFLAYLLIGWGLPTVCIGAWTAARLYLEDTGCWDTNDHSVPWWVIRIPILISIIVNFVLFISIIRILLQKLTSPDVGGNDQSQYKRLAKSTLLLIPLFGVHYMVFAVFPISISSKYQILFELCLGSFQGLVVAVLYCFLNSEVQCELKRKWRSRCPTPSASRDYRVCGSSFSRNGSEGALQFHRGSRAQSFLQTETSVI

PAC1 = molecular target: T2, PAC1 (Homo sapiens, UniProt P41586); assay: Activity and selectivity of PAC1 agonists on PAC1
T2 sequence (P41586 21-468): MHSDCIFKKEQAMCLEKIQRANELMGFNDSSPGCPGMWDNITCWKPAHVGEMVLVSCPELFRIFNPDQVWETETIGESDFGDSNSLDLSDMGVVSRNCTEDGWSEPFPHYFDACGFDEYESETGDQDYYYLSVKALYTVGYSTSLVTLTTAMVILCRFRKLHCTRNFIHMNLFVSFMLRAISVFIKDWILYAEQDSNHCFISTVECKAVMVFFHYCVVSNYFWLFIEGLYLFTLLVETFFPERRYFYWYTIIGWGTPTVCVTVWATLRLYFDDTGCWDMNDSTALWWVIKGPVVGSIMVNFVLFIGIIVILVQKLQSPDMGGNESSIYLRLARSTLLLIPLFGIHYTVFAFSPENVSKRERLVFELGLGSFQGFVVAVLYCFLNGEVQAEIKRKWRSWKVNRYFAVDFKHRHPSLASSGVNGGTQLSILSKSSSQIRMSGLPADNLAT

VPAC1 = molecular target: T3, VPAC1 (Homo sapiens, UniProt P32241); assay: Activity and selectivity of PAC1 agonists on VPAC1; details: receptor agonist on VPAC1
T3 sequence (P32241 31-457): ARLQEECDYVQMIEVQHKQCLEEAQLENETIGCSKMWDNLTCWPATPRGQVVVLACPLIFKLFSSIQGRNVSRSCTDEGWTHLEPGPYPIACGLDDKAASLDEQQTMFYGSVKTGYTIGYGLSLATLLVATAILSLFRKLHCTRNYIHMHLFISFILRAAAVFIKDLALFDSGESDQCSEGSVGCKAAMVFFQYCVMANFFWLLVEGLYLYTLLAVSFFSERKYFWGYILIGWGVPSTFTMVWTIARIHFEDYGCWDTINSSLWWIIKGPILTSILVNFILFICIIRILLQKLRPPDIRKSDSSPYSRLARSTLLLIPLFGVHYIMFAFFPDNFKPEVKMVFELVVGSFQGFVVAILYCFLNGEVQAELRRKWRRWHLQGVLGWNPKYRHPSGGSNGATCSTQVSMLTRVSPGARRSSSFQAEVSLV

Maxadilan: 65 amino acid peptide originally isolated from the sand-fly; PAC1-selective agonist
EC50 (VPAC2): > 1000 nM
agonist activity and selectivity (PAC1; PAC1 versus VPAC1 and VPAC2): highly-selective for PAC1 versus VPAC1 and VPAC2
EC50 (PAC1; receptor agonist on PAC1): 0.06 nM
EC50 (VPAC1): > 1000 nM
